Assay results from PMC3086059.

Molecular target: Mua fused to the T18 or T25 fragment of adenylate cyclase (BACTH) (Helicobacter pylori)
Assay: two-hybrid
Settings: scale: Miller units per mg of bacterial dry weight

“Mua fused to the T18 or T25 fragment of adenylate cyclase (BACTH) (natural protein)” was tested, and the beta-galactosidase activity was 1920 to 2980.
